The text below walks through data of paper doi:10.1101/463968, “Structure of a bacterial ATP synthase” (bioRxiv, 2018).

What all share (assay): cryo-EM structure; intact Bacillus PS3 ATP synthase in GDN, three rotational states at 2.9, 2.9 and 3.1 Å; focused refinement of the membrane-embedded region at 3.3 Å
Data set [1] concerns the molecule itself.
Data set [2] addresses T1, Bacillus PS3 ATP synthase subunit α (Bacillus PS3, UniProt P09219 1-502).
T1 construct: ATP synthase subunit alpha, Bacillus PS3; three copies in the complex (α3β3γδε ab2c10); Part of the intact complex α3β3γδε ab2c10; also called αDP; source: E. coli strain DK8, plasmid pTR-ASDS; purified as part of the whole ATP synthase (GDN, HisTrap HP, Superose 6)
The note with it: both partners purified.

Data set [3] concerns the target T2, Bacillus PS3 ATP synthase subunit γ (Bacillus PS3, UniProt P09222 5-286).
T2 construct: ATP synthase subunit gamma, Bacillus PS3; source: E. coli strain DK8, plasmid pTR-ASDS; purified as part of the whole ATP synthase (GDN, HisTrap HP, Superose 6)
The settings on record: both partners purified.

T2 sequence (P09222 5-286): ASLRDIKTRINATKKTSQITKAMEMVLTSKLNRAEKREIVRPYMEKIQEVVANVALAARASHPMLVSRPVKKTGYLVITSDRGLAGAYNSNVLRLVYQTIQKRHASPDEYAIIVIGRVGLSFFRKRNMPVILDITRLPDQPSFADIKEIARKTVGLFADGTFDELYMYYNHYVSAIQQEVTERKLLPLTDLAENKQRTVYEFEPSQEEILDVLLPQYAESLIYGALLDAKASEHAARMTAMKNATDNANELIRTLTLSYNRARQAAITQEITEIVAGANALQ
T1 sequence (P09219 whole entry): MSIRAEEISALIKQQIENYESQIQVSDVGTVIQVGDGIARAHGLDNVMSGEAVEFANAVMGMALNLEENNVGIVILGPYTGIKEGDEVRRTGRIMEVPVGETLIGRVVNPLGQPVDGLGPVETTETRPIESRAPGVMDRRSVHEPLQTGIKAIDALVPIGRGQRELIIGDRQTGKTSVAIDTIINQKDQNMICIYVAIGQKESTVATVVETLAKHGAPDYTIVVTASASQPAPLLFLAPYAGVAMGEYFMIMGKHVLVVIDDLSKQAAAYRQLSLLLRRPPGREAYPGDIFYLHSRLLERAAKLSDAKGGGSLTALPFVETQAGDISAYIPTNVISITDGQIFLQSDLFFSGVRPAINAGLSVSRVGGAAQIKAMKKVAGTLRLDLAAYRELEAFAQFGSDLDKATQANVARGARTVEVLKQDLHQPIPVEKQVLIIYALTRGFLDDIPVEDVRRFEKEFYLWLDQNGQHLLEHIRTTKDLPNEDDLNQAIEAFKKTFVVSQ

B1: Bacillus PS3 ATP synthase subunit c (natural protein, UniProt P00845 1-72, looked up)
chain: MSLGVLAAAIAVGLGALGAGIGNGLIVSRTIEGIARQPELRPVLQTTMFIGVALVEALPIIGVVFSFIYLGR
notes: ATP synthase subunit c, Bacillus PS3; ring of ten copies; also called c-ring; c10; source: E. coli strain DK8, plasmid pTR-ASDS; purified as part of the whole ATP synthase (GDN, HisTrap HP, Superose 6); copies: 10
Regarding B1, in data set [1], the stoichiometry N – broadly, a count of units in the complex or per binding partner – was found to be 10.

B2: Bacillus PS3 ATP synthase subunit ε (natural protein, UniProt P07678 1-132, looked up)
chain: MKTIHVSVVTPDGPVYEDDVEMVSVKAKSGELGILPGHIPLVAPLEISAARLKKGGKTQYIAVSGGFLEVRPDNVTILAQAAERAEDIDVLRAKARKSGRTPLQSQQDDIDFKRAELALKRAMNRLSVAEMK
notes: ATP synthase subunit epsilon, Bacillus PS3; source: E. coli strain DK8, plasmid pTR-ASDS; purified as part of the whole ATP synthase (GDN, HisTrap HP, Superose 6)
Take B2: the binding result in data set [2] and in data set [3] was “binds” throughout.
